B1: BBSome complex member BBS5 (Homo sapiens), Q8N3I7 (parent)
chain: MSVLDALWEDRDVRFDLSAQQMKTRPGEVLIDCLDSIEDTKGNNGDRGRLLVTNLRILWHSLALSRVNVSVGYNCILNITTRTANSKLRGQTEALYILTKCNSTRFEFIFTNLVPGSPRLFTSVMAVHRAYETSKMYRDFKLRSALIQNKQLRLLPQEHVYDKINGVWNLSSDQGNLGTFFITNVRIVWHANMNDSFNVSIPYLQIRSIKIRDSKFGLALVIESSQQSGGYVLGFKIDPVEKLQESVKEINSLHKVYSASPIFGVDYEMEEKPQPLEALTVEQIQDDVEIDSDGHTDAFVAYFADGNKQQDREPVFSEELGLAIEKLKDGFTLQGLWEVMS
partner: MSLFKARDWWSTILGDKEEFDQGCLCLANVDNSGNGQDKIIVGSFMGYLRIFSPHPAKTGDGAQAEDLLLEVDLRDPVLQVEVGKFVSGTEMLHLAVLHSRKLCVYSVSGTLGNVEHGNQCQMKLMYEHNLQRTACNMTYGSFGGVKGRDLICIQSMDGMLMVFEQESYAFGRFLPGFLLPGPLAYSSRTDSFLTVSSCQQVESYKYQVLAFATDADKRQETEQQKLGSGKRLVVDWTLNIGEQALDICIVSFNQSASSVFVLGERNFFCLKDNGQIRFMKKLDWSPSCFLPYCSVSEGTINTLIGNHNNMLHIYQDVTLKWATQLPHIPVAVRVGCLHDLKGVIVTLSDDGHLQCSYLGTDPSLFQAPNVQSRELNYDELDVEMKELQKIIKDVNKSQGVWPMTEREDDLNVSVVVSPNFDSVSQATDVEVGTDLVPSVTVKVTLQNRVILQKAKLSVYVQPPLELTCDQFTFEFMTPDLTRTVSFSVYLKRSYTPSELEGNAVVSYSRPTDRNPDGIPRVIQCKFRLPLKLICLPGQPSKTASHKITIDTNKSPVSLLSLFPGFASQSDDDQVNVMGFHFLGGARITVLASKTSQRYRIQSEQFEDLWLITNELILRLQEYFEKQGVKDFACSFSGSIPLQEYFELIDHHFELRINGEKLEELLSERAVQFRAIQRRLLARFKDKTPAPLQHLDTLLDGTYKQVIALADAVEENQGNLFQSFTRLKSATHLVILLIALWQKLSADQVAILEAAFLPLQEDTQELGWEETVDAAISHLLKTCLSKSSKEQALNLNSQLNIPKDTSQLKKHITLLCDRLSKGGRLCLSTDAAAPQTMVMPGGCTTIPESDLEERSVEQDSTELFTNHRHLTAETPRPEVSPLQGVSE

Variants of: B1
Settings: with pthb1_human BBS9, Q3SYG4

Effect of a mutation on the interaction, with no effect:
MSVLDALWEDRDVRFDLSAQQMKTRPGEVLIDCLDSIEDTKGNNGDRGRLLVTNLRILWHSLALSRVNVSVGYNCILNITTRTANSKLRGQTEALYILTKCNSTRFEFIFTNLVPGEPRLFTSVMAVHRAYETSKMYRDFKLRSALIQNKQLRLLPQEHVYDKINGVWNLSSDQGNLGTFFITNVRIVWHANMNDSFNVSIPYLQIRSIKIRDSKFGLALVIESSQQSGGYVLGFKIDPVEKLQESVKEINSLHKVYSASPIFGVDYEMEEKPQPLEALTVEQIQDDVEIDSDGHTDAFVAYFADGNKQQDREPVFSEELGLAIEKLKDGFTLQGLWEVMS [S117E]
MSVLDALWEDRDVRFDLSAQQMKTRPGEVLIDCLDSIEDTKGNNGDRGRLLVTNLRILWHSLALSRVNVSVGYNCILNITTRTANSKLRGQTEALYILTKCNSTRFEFIFTNLVPGKPRLFTSVMAVHRAYETSKMYRDFKLRSALIQNKQLRLLPQEHVYDKINGVWNLSSDQGNLGTFFITNVRIVWHANMNDSFNVSIPYLQIRSIKIRDSKFGLALVIESSQQSGGYVLGFKIDPVEKLQESVKEINSLHKVYSASPIFGVDYEMEEKPQPLEALTVEQIQDDVEIDSDGHTDAFVAYFADGNKQQDREPVFSEELGLAIEKLKDGFTLQGLWEVMS [S117K]
MSVLDALWEDRDVRFDLSAQQMKTRPGEVLIDCLDSIEDTKGNNGDRGRLLVTNLRILWHSLALSRVNVSVGYNCILNITTRTANSKLRGQTEALYILTKCNSTRFEFIFTNLVPGAPRLFTSVMAVHRAYETSKMYRDFKLRSALIQNKQLRLLPQEHVYDKINGVWNLSSDQGNLGTFFITNVRIVWHANMNDSFNVSIPYLQIRSIKIRDSKFGLALVIESSQQSGGYVLGFKIDPVEKLQESVKEINSLHKVYSASPIFGVDYEMEEKPQPLEALTVEQIQDDVEIDSDGHTDAFVAYFADGNKQQDREPVFSEELGLAIEKLKDGFTLQGLWEVMS [S117A]
MSVLDALWEDRDVRFDLSAQQMKTRPGEVLIDCLDSIEDTKGNNGDRGRLLVTNLRILWHSLALSRVNVSVGYNCILNITTRTANSKLRGQTEALYILTKCNSTRFEFIFTNLVPKSPRLFTSVMAVHRAYETSKMYRDFKLRSALIQNKQLRLLPQEHVYDKINGVWNLSSDQGNLGTFFITNVRIVWHANMNDSFNVSIPYLQIRSIKIRDSKFGLALVIESSQQSGGYVLGFKIDPVEKLQESVKEINSLHKVYSASPIFGVDYEMEEKPQPLEALTVEQIQDDVEIDSDGHTDAFVAYFADGNKQQDREPVFSEELGLAIEKLKDGFTLQGLWEVMS [G116K]
MSVLDALWEDRDVRFDLSAQQMKTRPGEVLIDCLDSIEDTKGNNGDRGRLLVTNLRILWHSLALSRVNVSVGYNCILNITTRTANSKLRGQTEALYILTKCNSTRFEFIFTNLVPASPRLFTSVMAVHRAYETSKMYRDFKLRSALIQNKQLRLLPQEHVYDKINGVWNLSSDQGNLGTFFITNVRIVWHANMNDSFNVSIPYLQIRSIKIRDSKFGLALVIESSQQSGGYVLGFKIDPVEKLQESVKEINSLHKVYSASPIFGVDYEMEEKPQPLEALTVEQIQDDVEIDSDGHTDAFVAYFADGNKQQDREPVFSEELGLAIEKLKDGFTLQGLWEVMS [G116A]
MSVLDALWEDRDVRFDLSAQQMKTRPGEVLIDCLDSIEDTKGNNGDRGRLLVTNLRILWHSLALSRVNVSVGYNCILNITTRTANSKLRGQTEALYILTKCNSTRFEFIFTNLVPESPRLFTSVMAVHRAYETSKMYRDFKLRSALIQNKQLRLLPQEHVYDKINGVWNLSSDQGNLGTFFITNVRIVWHANMNDSFNVSIPYLQIRSIKIRDSKFGLALVIESSQQSGGYVLGFKIDPVEKLQESVKEINSLHKVYSASPIFGVDYEMEEKPQPLEALTVEQIQDDVEIDSDGHTDAFVAYFADGNKQQDREPVFSEELGLAIEKLKDGFTLQGLWEVMS [G116E]
MSVLDALWEDRDVRFDLSAQQMKTRPGEVLIDCLDSIEDTKGNNGDRGRLLVTNLRILWHSLALSRVNVSVGYNCILNITTRTANSKLRGQTEALYILTKCNSTRFEFIFTNLVPGSPRLETSVMAVHRAYETSKMYRDFKLRSALIQNKQLRLLPQEHVYDKINGVWNLSSDQGNLGTFFITNVRIVWHANMNDSFNVSIPYLQIRSIKIRDSKFGLALVIESSQQSGGYVLGFKIDPVEKLQESVKEINSLHKVYSASPIFGVDYEMEEKPQPLEALTVEQIQDDVEIDSDGHTDAFVAYFADGNKQQDREPVFSEELGLAIEKLKDGFTLQGLWEVMS [F121E]
MSVLDALWEDRDVRFDLSAQQMKTRPGEVLIDCLDSIEDTKGNNGDRGRLLVTNLRILWHSLALSRVNVSVGYNCILNITTRTANSKLRGQTEALYILTKCNSTRFEFIFTNLVPGSPRLATSVMAVHRAYETSKMYRDFKLRSALIQNKQLRLLPQEHVYDKINGVWNLSSDQGNLGTFFITNVRIVWHANMNDSFNVSIPYLQIRSIKIRDSKFGLALVIESSQQSGGYVLGFKIDPVEKLQESVKEINSLHKVYSASPIFGVDYEMEEKPQPLEALTVEQIQDDVEIDSDGHTDAFVAYFADGNKQQDREPVFSEELGLAIEKLKDGFTLQGLWEVMS [F121A]
MSVLDALWEDRDVRFDLSAQQMKTRPGEVLIDCLDSIEDTKGNNGDRGRLLVTNLRILWHSLALSRVNVSVGYNCILNITTRTANSKLRGQTEALYILTKCNSTRFEFIFTNLVPGSPELFTSVMAVHRAYETSKMYRDFKLRSALIQNKQLRLLPQEHVYDKINGVWNLSSDQGNLGTFFITNVRIVWHANMNDSFNVSIPYLQIRSIKIRDSKFGLALVIESSQQSGGYVLGFKIDPVEKLQESVKEINSLHKVYSASPIFGVDYEMEEKPQPLEALTVEQIQDDVEIDSDGHTDAFVAYFADGNKQQDREPVFSEELGLAIEKLKDGFTLQGLWEVMS [R119E]
MSVLDALWEDRDVRFDLSAQQMKTRPGEVLIDCLDSIEDTKGNNGDRGRLLVTNLRILWHSLALSRVNVSVGYNCILNITTRTANSKLRGQTEALYILTKCNSTRFEFIFTNLVPGSPKLFTSVMAVHRAYETSKMYRDFKLRSALIQNKQLRLLPQEHVYDKINGVWNLSSDQGNLGTFFITNVRIVWHANMNDSFNVSIPYLQIRSIKIRDSKFGLALVIESSQQSGGYVLGFKIDPVEKLQESVKEINSLHKVYSASPIFGVDYEMEEKPQPLEALTVEQIQDDVEIDSDGHTDAFVAYFADGNKQQDREPVFSEELGLAIEKLKDGFTLQGLWEVMS [R119K]
MSVLDALWEDRDVRFDLSAQQMKTRPGEVLIDCLDSIEDTKGNNGDRGRLLVTNLRILWHSLALSRVNVSVGYNCILNITTRTANSKLRGQTEALYILTKCNSTRFEFIFTNLVPGSPALFTSVMAVHRAYETSKMYRDFKLRSALIQNKQLRLLPQEHVYDKINGVWNLSSDQGNLGTFFITNVRIVWHANMNDSFNVSIPYLQIRSIKIRDSKFGLALVIESSQQSGGYVLGFKIDPVEKLQESVKEINSLHKVYSASPIFGVDYEMEEKPQPLEALTVEQIQDDVEIDSDGHTDAFVAYFADGNKQQDREPVFSEELGLAIEKLKDGFTLQGLWEVMS [R119A]
MSVLDALWEDRDVRFDLSAQQMKTRPGEVLIDCLDSIEDTKGNNGDRGRLLVTNLRILWHSLALSRVNVSVGYNCILNITTRTANSKLRGQTEALYILTKCNSTRFEFIFTNLVPGSERLFTSVMAVHRAYETSKMYRDFKLRSALIQNKQLRLLPQEHVYDKINGVWNLSSDQGNLGTFFITNVRIVWHANMNDSFNVSIPYLQIRSIKIRDSKFGLALVIESSQQSGGYVLGFKIDPVEKLQESVKEINSLHKVYSASPIFGVDYEMEEKPQPLEALTVEQIQDDVEIDSDGHTDAFVAYFADGNKQQDREPVFSEELGLAIEKLKDGFTLQGLWEVMS [P118E]
MSVLDALWEDRDVRFDLSAQQMKTRPGEVLIDCLDSIEDTKGNNGDRGRLLVTNLRILWHSLALSRVNVSVGYNCILNITTRTANSKLRGQTEALYILTKCNSTRFEFIFTNLVPGSKRLFTSVMAVHRAYETSKMYRDFKLRSALIQNKQLRLLPQEHVYDKINGVWNLSSDQGNLGTFFITNVRIVWHANMNDSFNVSIPYLQIRSIKIRDSKFGLALVIESSQQSGGYVLGFKIDPVEKLQESVKEINSLHKVYSASPIFGVDYEMEEKPQPLEALTVEQIQDDVEIDSDGHTDAFVAYFADGNKQQDREPVFSEELGLAIEKLKDGFTLQGLWEVMS [P118K]
MSVLDALWEDRDVRFDLSAQQMKTRPGEVLIDCLDSIEDTKGNNGDRGRLLVTNLRILWHSLALSRVNVSVGYNCILNITTRTANSKLRGQTEALYILTKCNSTRFEFIFTNLVPGSARLFTSVMAVHRAYETSKMYRDFKLRSALIQNKQLRLLPQEHVYDKINGVWNLSSDQGNLGTFFITNVRIVWHANMNDSFNVSIPYLQIRSIKIRDSKFGLALVIESSQQSGGYVLGFKIDPVEKLQESVKEINSLHKVYSASPIFGVDYEMEEKPQPLEALTVEQIQDDVEIDSDGHTDAFVAYFADGNKQQDREPVFSEELGLAIEKLKDGFTLQGLWEVMS [P118A]
MSVLDALWEDRDVRFDLSAQQMKTRPGEVLIDCLDSIEDTKGNNGDRGRLLVTNLRILWHSLALSRVNVSVGYNCILNITTRTANSKLRGQTEALYILTKCNSTRFEFIFTNLVPGSPRKFTSVMAVHRAYETSKMYRDFKLRSALIQNKQLRLLPQEHVYDKINGVWNLSSDQGNLGTFFITNVRIVWHANMNDSFNVSIPYLQIRSIKIRDSKFGLALVIESSQQSGGYVLGFKIDPVEKLQESVKEINSLHKVYSASPIFGVDYEMEEKPQPLEALTVEQIQDDVEIDSDGHTDAFVAYFADGNKQQDREPVFSEELGLAIEKLKDGFTLQGLWEVMS [L120K]
MSVLDALWEDRDVRFDLSAQQMKTRPGEVLIDCLDSIEDTKGNNGDRGRLLVTNLRILWHSLALSRVNVSVGYNCILNITTRTANSKLRGQTEALYILTKCNSTRFEFIFTNLVPGSPREFTSVMAVHRAYETSKMYRDFKLRSALIQNKQLRLLPQEHVYDKINGVWNLSSDQGNLGTFFITNVRIVWHANMNDSFNVSIPYLQIRSIKIRDSKFGLALVIESSQQSGGYVLGFKIDPVEKLQESVKEINSLHKVYSASPIFGVDYEMEEKPQPLEALTVEQIQDDVEIDSDGHTDAFVAYFADGNKQQDREPVFSEELGLAIEKLKDGFTLQGLWEVMS [L120E]
MSVLDALWEDRDVRFDLSAQQMKTRPGEVLIDCLDSIEDTKGNNGDRGRLLVTNLRILWHSLALSRVNVSVGYNCILNITTRTANSKLRGQTEALYILTKCNSTRFEFIFTNLVPGSPRAFTSVMAVHRAYETSKMYRDFKLRSALIQNKQLRLLPQEHVYDKINGVWNLSSDQGNLGTFFITNVRIVWHANMNDSFNVSIPYLQIRSIKIRDSKFGLALVIESSQQSGGYVLGFKIDPVEKLQESVKEINSLHKVYSASPIFGVDYEMEEKPQPLEALTVEQIQDDVEIDSDGHTDAFVAYFADGNKQQDREPVFSEELGLAIEKLKDGFTLQGLWEVMS [L120A]

— IntAct's records for PubMed 29039417
